Square brackets hold non-standard residues; d marks the D form. Ends that are not written are not given here. Blc = γ-butyrolactone-γ-carbonyl group; pGlu = O=C1CC[C@@H](C(=O)O)N1; ΔPro = O=C(O)[C@@H]1C=CCN1; His(3-Me) = 3-Me-His
T1: human TRH receptor protein (human)
T1 chain: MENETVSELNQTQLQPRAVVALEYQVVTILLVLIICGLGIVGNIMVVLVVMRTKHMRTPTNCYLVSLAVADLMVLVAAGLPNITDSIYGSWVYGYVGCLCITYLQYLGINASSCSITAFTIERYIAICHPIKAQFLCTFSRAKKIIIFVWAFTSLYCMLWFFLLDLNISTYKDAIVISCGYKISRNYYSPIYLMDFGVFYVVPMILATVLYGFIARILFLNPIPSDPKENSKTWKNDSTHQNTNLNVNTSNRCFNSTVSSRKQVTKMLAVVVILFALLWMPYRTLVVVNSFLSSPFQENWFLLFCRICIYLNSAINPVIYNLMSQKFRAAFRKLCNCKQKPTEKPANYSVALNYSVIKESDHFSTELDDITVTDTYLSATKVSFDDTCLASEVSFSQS


What was measured:
[1] = target: T1, human TRH receptor protein; assay: competition with 10 nM 3H-TRH, CHO cells expressing human TRH receptor; compound at 10^-5 M
[2] = target: T1, human TRH receptor protein; assay: competition with 10 nM 3H-TRH, CHO cells expressing human TRH receptor; compound at 10^-4 M
[3] = target: T1, human TRH receptor protein; assay: competition with 10 nM 3H-TRH, CHO cells expressing human TRH receptor; compound at 10^-10 M
Procedure: (§1) In Table 2, the degree of a reduction in the binding of [^3H] TRH in the case where the TRH analogous compound having respective concentrations was added to the total binding of [^3H] TRH in the case where no TRH analogous compound existed was indicated as percentage. The specific activity of [^3H] TRH used in the experiment was 83.04 Ci/mmol, and this was added to give a concentration of 10 nM in the reaction solution. For the compounds indicated by (*1) in the table, the specific activity of [^3H] TRH was 45 Ci/mmol, and this was added to give a concentration of 18.3 nM in the reaction solution.

[4] = target: T1, human TRH receptor protein; assay: competition with 10 nM 3H-TRH, CHO cells expressing human TRH receptor; compound at 10^-12 M
Procedure: as §1

[5] = target: T1, human TRH receptor protein; assay: competition with 10 nM 3H-TRH, CHO cells expressing human TRH receptor; compound at 10^-9 M
[6] = target: T1, human TRH receptor protein; assay: competition with 10 nM 3H-TRH, CHO cells expressing human TRH receptor; compound at 10^-8 M
[7] = target: T1, human TRH receptor protein; assay: competition with 10 nM 3H-TRH, CHO cells expressing human TRH receptor; compound at 10^-11 M
Procedure: as §1

[8] = target: T1, human TRH receptor protein; assay: competition with 18.3 nM 3H-TRH, CHO cells expressing human TRH receptor; compound at 10^-6 M
Procedure: as §1

[9] = target: T1, human TRH receptor protein; assay: competition with 18.3 nM 3H-TRH, CHO cells expressing human TRH receptor; compound at 10^-9 M
Procedure: as §1

[10] = target: T1, human TRH receptor protein; assay: competition with 18.3 nM 3H-TRH, CHO cells expressing human TRH receptor; compound at 10^-5 M
Procedure: as §1

[11] = target: T1, human TRH receptor protein; assay: competition with 18.3 nM 3H-TRH, CHO cells expressing human TRH receptor; compound at 10^-7 M
Procedure: as §1

[12] = target: T1, human TRH receptor protein; assay: competition with 18.3 nM 3H-TRH, CHO cells expressing human TRH receptor; compound at 10^-8 M
Procedure: as §1

[13] = target: T1, human TRH receptor protein; assay: competition with 18.3 nM 3H-TRH, CHO cells expressing human TRH receptor; compound at 10^-10 M
Procedure: as §1

[14] = target: T1, human TRH receptor protein; assay: competition with 10 nM 3H-TRH, CHO cells expressing human TRH receptor; compound at 10^-6 M
Procedure: as §1

[15] = target: T1, human TRH receptor protein; assay: competition with 10 nM 3H-TRH, CHO cells expressing human TRH receptor; compound at 10^-7 M
Procedure: as §1

Row | Binder | Antagonistic Rate (%) [1] | Antagonistic Rate (%) [2] | Antagonistic Rate (%) [8] | Antagonistic Rate (%) [9] | Antagonistic Rate (%) [10] | Antagonistic Rate (%) [11] | Antagonistic Rate (%) [12] | Antagonistic Rate (%) [13] | also measured
1 | HP (cyclic dipeptide (diketopiperazine) of His and Pro) [Cyclo(His--Pro) His Pro-Diketopiperazine] | 0.6% | -1.1% |  |  |  |  |  |  | 
2 | Blc-His-Pro [Blc His Pro] | -0.1% | 0.7% |  |  |  |  |  |  | 
3 | [pGlu]-[His(3-Me)]-Pro-NH2 [pGlu 3-Me-His Pro NH2] | 97.9% |  |  |  |  |  |  |  | Antagonistic Rate (%) [3]: -4.4%; Antagonistic Rate (%) [4]: -6.5%; Antagonistic Rate (%) [5]: 20%; Antagonistic Rate (%) [6]: 85%; Antagonistic Rate (%) [7]: -7.1%
4 | [pGlu]-His-Pro-NH2 [TRH (pGlu His Pro NH2)] | 99.7% |  | 97.8% | 4.2% | 99.7% | 83.9% | 39.8% | -0.7% | Antagonistic Rate (%) [3]: 0.3%; Antagonistic Rate (%) [4]: 0%; Antagonistic Rate (%) [14]: 98.7%; Antagonistic Rate (%) [15]: 90.7%; Antagonistic Rate (%) [5]: 7.2%; Antagonistic Rate (%) [6]: 52%; Antagonistic Rate (%) [7]: 0.7%
5 | Glu-His-Pro-NH2 [Glu His Pro NH2] |  |  | 70.7% | 1% | 95.3% | 19.7% | 1.8% | 2% | 
6 | [pGlu]-His-Pro [pGLU His Pro] | 11.8% | 40.8% |  |  |  |  |  |  | 

Continued, in another order:

Row | Antagonistic Rate (%) [1] | Antagonistic Rate (%) [2] | Antagonistic Rate (%) [8] | Antagonistic Rate (%) [9] | Antagonistic Rate (%) [10] | Antagonistic Rate (%) [11] | Antagonistic Rate (%) [12] | Antagonistic Rate (%) [13] | Binder | also measured
7 | 74.2% | 96.2% |  |  |  |  |  |  | [pGlu]-Phe-Pro-NH2 [pGlu Phe Pro NH2] | 
8 |  |  | 98.3% | 7% | 99.7% | 84.6% | 39.1% | 2.2% | [pGlu]-His-[ΔPro]-NH2 (SMILES NC(=O)[C@@H]1C=CCN1C(=O)[C@H](Cc1c[nH]cn1)NC(=O)[C@@H]1CCC(=O)N1) [pGlu His 3,4-dihydro-Pro NH2] | 
9 | -2.9% |  |  |  |  |  |  |  | [pGlu]-Glu-Pro-NH2 (SMILES NC(=O)[C@@H]1CCCN1C(=O)[C@H](CCC(=O)O)NC(=O)[C@@H]1CCC(=O)N1) [pGlu Glu Pro NH2] | 

From patent US5879896A, “Method of screening for inhibitors of human thyrotropin releasing hormone (TRH) receptor” (Takeda Chemical Industries, Ltd., priority 1993, dated 1999)
